Patent US11427623

Tests used:
[1] = molecular target: KLB (beta-klotho) on KLB only expressing cells (UniProt Q86Z14); assay: cell-based or functional assay
[2] = molecular target: KLB/FGFR4 on KLB/FGFR4 expressing cells (UniProt Q86Z14); assay: cell-based or functional assay
Sequence of KLB/FGFR4 on KLB/FGFR4 expressing cells (Q86Z14 whole entry, chain 1 of 2): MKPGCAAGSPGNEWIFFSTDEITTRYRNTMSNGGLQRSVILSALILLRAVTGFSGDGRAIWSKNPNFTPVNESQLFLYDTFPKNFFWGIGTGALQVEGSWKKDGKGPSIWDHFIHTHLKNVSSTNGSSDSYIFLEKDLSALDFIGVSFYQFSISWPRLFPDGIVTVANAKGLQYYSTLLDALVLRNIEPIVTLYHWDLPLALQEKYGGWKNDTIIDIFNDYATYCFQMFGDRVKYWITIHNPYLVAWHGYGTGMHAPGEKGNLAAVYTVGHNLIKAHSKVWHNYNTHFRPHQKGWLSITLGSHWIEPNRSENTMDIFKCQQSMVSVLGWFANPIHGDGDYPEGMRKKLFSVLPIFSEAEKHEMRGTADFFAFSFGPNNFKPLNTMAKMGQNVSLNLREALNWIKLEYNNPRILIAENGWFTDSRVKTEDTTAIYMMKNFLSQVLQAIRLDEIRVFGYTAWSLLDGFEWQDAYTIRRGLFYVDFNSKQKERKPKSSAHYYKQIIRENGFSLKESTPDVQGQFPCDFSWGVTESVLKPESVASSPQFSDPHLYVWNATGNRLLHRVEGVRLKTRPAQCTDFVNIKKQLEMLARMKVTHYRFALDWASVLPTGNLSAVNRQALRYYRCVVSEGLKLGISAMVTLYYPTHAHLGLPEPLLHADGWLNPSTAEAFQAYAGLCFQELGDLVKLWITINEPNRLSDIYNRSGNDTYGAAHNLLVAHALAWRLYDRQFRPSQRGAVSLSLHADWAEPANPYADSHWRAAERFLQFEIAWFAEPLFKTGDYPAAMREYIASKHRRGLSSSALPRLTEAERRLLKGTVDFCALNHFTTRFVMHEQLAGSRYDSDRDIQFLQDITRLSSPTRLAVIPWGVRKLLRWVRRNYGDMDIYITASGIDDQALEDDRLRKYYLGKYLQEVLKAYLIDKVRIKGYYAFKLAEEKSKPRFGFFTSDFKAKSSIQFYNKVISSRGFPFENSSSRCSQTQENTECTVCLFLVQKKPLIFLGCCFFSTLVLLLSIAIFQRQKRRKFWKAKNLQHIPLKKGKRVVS
Sequence of KLB/FGFR4 on KLB/FGFR4 expressing cells (P22455 22-802 limits assumed, chain 2 of 2, further chain): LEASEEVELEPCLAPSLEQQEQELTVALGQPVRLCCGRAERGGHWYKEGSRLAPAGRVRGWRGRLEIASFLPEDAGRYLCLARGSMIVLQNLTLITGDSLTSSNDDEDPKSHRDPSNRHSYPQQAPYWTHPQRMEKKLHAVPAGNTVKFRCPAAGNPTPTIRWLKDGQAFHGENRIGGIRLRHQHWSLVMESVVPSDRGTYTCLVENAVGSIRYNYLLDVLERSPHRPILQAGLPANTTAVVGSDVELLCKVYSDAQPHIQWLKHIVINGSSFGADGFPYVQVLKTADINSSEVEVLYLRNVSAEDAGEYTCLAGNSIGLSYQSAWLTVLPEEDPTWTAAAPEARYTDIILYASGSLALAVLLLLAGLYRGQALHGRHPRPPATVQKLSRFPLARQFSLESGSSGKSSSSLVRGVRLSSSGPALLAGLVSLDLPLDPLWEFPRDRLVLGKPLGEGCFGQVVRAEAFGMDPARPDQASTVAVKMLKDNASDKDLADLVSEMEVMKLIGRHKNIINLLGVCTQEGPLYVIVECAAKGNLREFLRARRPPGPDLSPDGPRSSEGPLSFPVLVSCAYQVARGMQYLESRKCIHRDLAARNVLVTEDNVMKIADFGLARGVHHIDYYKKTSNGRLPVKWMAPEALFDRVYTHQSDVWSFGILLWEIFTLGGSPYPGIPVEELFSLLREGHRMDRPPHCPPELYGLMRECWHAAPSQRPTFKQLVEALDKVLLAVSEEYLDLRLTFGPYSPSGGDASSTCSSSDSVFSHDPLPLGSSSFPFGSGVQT

Sequence of KLB (beta-klotho) on KLB only expressing cells (Q86Z14 whole entry): as the sequence (Q86Z14 whole entry, chain 1 of 2) above

Substance	fold increase of pERK at 3000 nM [1]	fold increase in pERK at the highest concentration of 3000 nM [2]
FGF-19 (from UniProt O95750 25-216) (ligand)	2 fold	–
Mutant FGF21-GalNAc-SA-PEG-20 kDa (BIO89-100) (from UniProt Q9NSA1 29-209) (ligand)	–	< 2 fold
native FGF-21 (from UniProt Q9NSA1 29-209) (ligand)	2 fold	< 2 fold
